Columns and labels:
[1] = target: Recombinant human ectodomain αIIbβ3, inactive (before activation) (human) (UniProt P08514); assay: flow cytometry, 50 nM Alexa488-fibrinogen on inactive αIIbβ3 beads
[2] = target: Recombinant human ectodomain αIIbβ3, inactive (before activation) (human) (UniProt P08514); assay: flow cytometry, 50 nM FITC-PAC 1 on inactive αIIbβ3 beads
[3] = target: Recombinant human ectodomain αIIbβ3, activated (high-affinity ligand binding conformation) (human) (UniProt P08514); assay: flow cytometry, 50 nM FITC-PAC 1 on activated αIIbβ3 beads
Recombinant human ectodomain αIIbβ3, activated (high-affinity ligand binding conformation) (human), sequence (P08514 other isoform, or with tags, fused parts or gaps limits assumed, chain 1 of 2): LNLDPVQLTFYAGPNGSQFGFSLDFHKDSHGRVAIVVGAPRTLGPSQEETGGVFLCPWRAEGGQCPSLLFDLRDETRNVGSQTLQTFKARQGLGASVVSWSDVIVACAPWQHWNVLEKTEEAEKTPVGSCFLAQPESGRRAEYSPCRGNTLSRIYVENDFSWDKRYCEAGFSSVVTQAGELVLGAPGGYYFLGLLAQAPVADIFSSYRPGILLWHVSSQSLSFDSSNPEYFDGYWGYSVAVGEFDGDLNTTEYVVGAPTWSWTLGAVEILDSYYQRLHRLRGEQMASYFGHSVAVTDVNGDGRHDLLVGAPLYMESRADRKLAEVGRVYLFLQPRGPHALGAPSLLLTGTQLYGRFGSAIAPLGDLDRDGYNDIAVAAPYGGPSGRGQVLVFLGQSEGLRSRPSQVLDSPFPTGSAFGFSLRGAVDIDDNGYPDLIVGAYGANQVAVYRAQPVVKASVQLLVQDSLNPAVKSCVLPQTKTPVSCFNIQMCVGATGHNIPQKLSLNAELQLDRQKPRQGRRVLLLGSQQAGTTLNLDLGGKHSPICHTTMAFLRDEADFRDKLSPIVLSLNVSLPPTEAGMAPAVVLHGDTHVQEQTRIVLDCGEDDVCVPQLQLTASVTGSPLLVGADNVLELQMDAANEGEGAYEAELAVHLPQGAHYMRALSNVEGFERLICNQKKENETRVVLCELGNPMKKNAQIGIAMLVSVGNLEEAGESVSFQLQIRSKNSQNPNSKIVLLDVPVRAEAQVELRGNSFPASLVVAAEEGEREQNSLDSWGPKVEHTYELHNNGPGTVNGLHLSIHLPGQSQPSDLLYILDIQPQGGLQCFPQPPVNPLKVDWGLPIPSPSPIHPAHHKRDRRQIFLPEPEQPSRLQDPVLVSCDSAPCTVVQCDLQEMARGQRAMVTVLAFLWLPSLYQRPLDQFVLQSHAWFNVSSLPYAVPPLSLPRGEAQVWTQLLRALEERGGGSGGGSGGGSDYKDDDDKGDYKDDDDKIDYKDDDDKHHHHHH
Recombinant human ectodomain αIIbβ3, activated (high-affinity ligand binding conformation) (human), sequence (chain, as listed by the source limits assumed, chain 2 of 2): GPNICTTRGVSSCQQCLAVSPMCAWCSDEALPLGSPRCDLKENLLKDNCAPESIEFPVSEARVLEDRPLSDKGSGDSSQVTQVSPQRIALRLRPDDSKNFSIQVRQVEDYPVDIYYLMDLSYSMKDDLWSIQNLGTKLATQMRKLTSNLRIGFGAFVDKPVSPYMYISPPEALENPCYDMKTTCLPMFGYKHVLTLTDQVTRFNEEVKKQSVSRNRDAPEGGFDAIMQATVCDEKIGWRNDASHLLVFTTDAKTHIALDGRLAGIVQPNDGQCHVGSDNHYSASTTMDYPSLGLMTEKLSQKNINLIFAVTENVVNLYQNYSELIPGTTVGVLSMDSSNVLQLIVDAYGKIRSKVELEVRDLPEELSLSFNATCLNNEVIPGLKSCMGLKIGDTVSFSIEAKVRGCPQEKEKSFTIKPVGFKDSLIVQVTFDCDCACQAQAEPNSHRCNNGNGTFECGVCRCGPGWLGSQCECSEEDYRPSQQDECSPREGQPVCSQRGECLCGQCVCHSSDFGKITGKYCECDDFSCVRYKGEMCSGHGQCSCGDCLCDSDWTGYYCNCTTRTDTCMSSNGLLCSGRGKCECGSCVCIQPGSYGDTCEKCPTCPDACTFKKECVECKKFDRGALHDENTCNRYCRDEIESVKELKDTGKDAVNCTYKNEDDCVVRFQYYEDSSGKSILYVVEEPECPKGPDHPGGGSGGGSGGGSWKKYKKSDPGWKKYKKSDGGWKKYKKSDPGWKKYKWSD

Recombinant human ectodomain αIIbβ3, inactive (before activation) (human), sequence (P08514 other isoform, or with tags, fused parts or gaps limits assumed, chain 1 of 2): as the sequence (P08514 other isoform, or with tags, fused parts or gaps limits assumed, chain 1 of 2) above
Recombinant human ectodomain αIIbβ3, inactive (before activation) (human), sequence (chain, as listed by the source limits assumed, chain 2 of 2): as the sequence (chain, as listed by the source limits assumed, chain 2 of 2) above

Mean Fluorescence Intensity (MFI) [1] [MFI] | Mean Fluorescence Intensity (MFI) [2] [MFI] | Mean Fluorescence Intensity (MFI) [3] [MFI] | Substance
52.7 |  |  | Fibrinogen (from UniProt P02671 20-644; P02675 31-491; P02679 27-437) (ligand)
 | 212 | 942 | PAC-1 (antibody specific for the active upright conformation of αIIbβ3)

From US20230331811A1, “IMMOBILIZED SELF-ASSEMBLED PROTEIN MULTIMERS” (CCOA THERAPEUTICS INC., priority 2020, published 2023)
